B1: GST-fused Prp40 FF1 (134–189) (domain or fragment, S. cerevisiae, UniProt P33203 134-189, looked up)
chain: EAEKEFITMLKENQVDSTWSFSRIISELGTRDPRYWMVDDDPLWKKEMFEKYLSNR
notes: yeast Prp40 residues 134–189 (FF1); also called GST-FF1; source: E. coli (pGEX-6p-1), purified as GST fusion protein; not shown: GST, N-terminal, kept
B2: Prp40 FF4-6 (351–552) (domain or fragment, S. cerevisiae, UniProt P33203 351-552, looked up)
chain: NYTRDRIARDNFKSLLREVPIKIKANTRWSDIYPHIKSDPRFLHMLGRNGSSCLDLFLDFVDEQRMYIFAQRSIAQQTLIDQNFEWNDADSDEITKQNIEKVLENDRKFDKVDKEDISLIVDGLIKQRNEKIQQKLQNERRILEQKKHYFWLLLQRTYTKTGKPKPSTWDLASKELGESLEYKALGDEDNIRRQIFEDFKPE
notes: yeast Prp40 residues 351–552 (FF4 to FF6); also called Prp40 FF4-6 protein; source: E. coli (pGEX-6p-1), purified
B3: GST-fused Prp40 FF2 (204–269) (domain or fragment, S. cerevisiae, UniProt P33203 204-269, looked up)
chain: FKEAFQKMLQNNSHIKYYTRWPTAKRLIADEPIYKHSVVNEKTKRQTFQDYIDTLIDTQKESKKKL
notes: yeast Prp40 residues 204–269 (FF2); also called GST-FF2; source: E. coli (pGEX-6p-1), purified as GST fusion protein; not shown: GST, N-terminal, kept
B4: GST-fused Prp40 FF3 (270–335) (domain or fragment, S. cerevisiae, UniProt P33203 270-335, looked up)
chain: KTQALKELREYLNGIITTSSSETFITWQQLLNHYVFDKSKRYMANRHFKVLTHEDVLNEYLKIVNT
notes: yeast Prp40 residues 270–335 (FF3); also called GST-FF3; source: E. coli (pGEX-6p-1), purified as GST fusion protein; not shown: GST, N-terminal, kept
B5: GST-fused Prp40 FF6 ext (488–583) (domain or fragment, S. cerevisiae, UniProt P33203 488-583, looked up)
chain: NERRILEQKKHYFWLLLQRTYTKTGKPKPSTWDLASKELGESLEYKALGDEDNIRRQIFEDFKPESSAPTAESATANLTLTASKKRHLTPAVELDY
notes: yeast Prp40 residues 488–583 (FF6 and the extension downstream of it, to the C-terminus); also called 6 extension; FF6 extension; source: E. coli (pGEX-6p-1), purified as GST fusion protein; not shown: GST, N-terminal, kept
B6: protein A-tagged Prp40 (full length) (natural protein, S. cerevisiae, UniProt P33203 1-583, looked up)
chain: MSIWKEAKDASGRIYYYNTLTKKSTWEKPKELISQEELLLRENGWKAAKTADGKVYYYNPTTRETSWTIPAFEKKVEPIAEQKHDTVSHAQVNGNRIALTAGEKQEPGRTINEEESQYANNSKLLNVRRRTKEEAEKEFITMLKENQVDSTWSFSRIISELGTRDPRYWMVDDDPLWKKEMFEKYLSNRSADQLLKEHNETSKFKEAFQKMLQNNSHIKYYTRWPTAKRLIADEPIYKHSVVNEKTKRQTFQDYIDTLIDTQKESKKKLKTQALKELREYLNGIITTSSSETFITWQQLLNHYVFDKSKRYMANRHFKVLTHEDVLNEYLKIVNTIENDLQNKLNELRLRNYTRDRIARDNFKSLLREVPIKIKANTRWSDIYPHIKSDPRFLHMLGRNGSSCLDLFLDFVDEQRMYIFAQRSIAQQTLIDQNFEWNDADSDEITKQNIEKVLENDRKFDKVDKEDISLIVDGLIKQRNEKIQQKLQNERRILEQKKHYFWLLLQRTYTKTGKPKPSTWDLASKELGESLEYKALGDEDNIRRQIFEDFKPESSAPTAESATANLTLTASKKRHLTPAVELDY
notes: yeast Prp40, full length, 583 residues; A TEV site lies between protein A and Prp40; also called ProtA-Prp40; source: yeast BCY123 (pRS414/GPD-protA-TEV-PRP40), purified on IgG resin; not shown: protein A, N-terminal, kept
B7: GST-fused Prp40 FF4 (351–415) (domain or fragment, S. cerevisiae, UniProt P33203 351-415, looked up)
chain: NYTRDRIARDNFKSLLREVPIKIKANTRWSDIYPHIKSDPRFLHMLGRNGSSCLDLFLDFVDEQR
notes: yeast Prp40 residues 351–415 (FF4); also called GST-FF4; source: E. coli (pGEX-6p-1), purified as GST fusion protein; not shown: GST, N-terminal, kept

Experiments:
Conditions in all cases: both partners purified
[1] = molecular target: T1, yeast RNA polymerase II, purified (CBP tag on RPB3) (yeast, UniProt P04050 1-1733; P08518 1-1224; P16370 1-318; P20433 1-221; P20434 1-215; P20435 …); experiment: pull-down; GST fusion proteins on glutathione-Sepharose incubated with 1 μM purified pol II, 1.5 h, 4 °C; cleaved off with PreScission protease; Western blot with 8WG16 (RPB1) and anti-CBP
T1 construct: RPB1, largest subunit of yeast pol II, wild type with its CTD (26 heptapeptide repeats); RPB2 subunit of yeast pol II; RPB3 subunit of yeast pol II, TAP-tagged (CBP-TEV-protein A); CBP is left after TEV cleavage; RPB4 subunit of yeast pol II; RPB5 subunit of yeast pol II; RPB6 subunit of yeast pol II; RPB7 subunit of yeast pol II; RPB8 subunit of yeast pol II; RPB9 subunit of yeast pol II; RPB10 …

[2] = molecular target: T1, yeast RNA polymerase II, purified (CBP …); experiment: cross-linking; purified pol II and Prp40 FF4-6 at ~1:1.5 molar ratio in 20 mM HEPES pH 7.5, 150 mM NaCl, 1 mM MgCl2, 0.5 mM TCEP; 1 mM DSSO or 2 mM SDA, 1 h, 4 °C; LC-MS/MS
[3] = molecular target: T1, yeast RNA polymerase II, purified (CBP …); experiment: pull-down; protein A-tagged protein on IgG resin incubated with 0.4 μM purified pol II in 20 mM Tris–HCl pH 8.0, 150 mM NaCl, 0.5 mM DTT, 1.5 h, 4 °C; Western blot with 8WG16 (RPB1) and anti-CBP (RPB3-CBP)

binding result [1]	other results	Binder
binds		B1
	binding result [2]: binds	B2
binds		B3
binds		B4
binds		B5
	binding result [3]: binds	B6
binds		B7

— PMC13250567, “U1 snRNP and RNA polymerase II interaction is predominantly mediated by Prp40 rather than U1-70K in yeast” (Nucleic Acids Research, 2026)
